Laboratory results taken from paper PMC11094075, “Ago2/CAV1 interaction potentiates metastasis via controlling Ago2 localization and miRNA action” (EMBO Reports, 2024).

Biological target: T1, HA-tagged wild-type Ago2 (HA-Ago2Wt), in Ago2-knockout A549 and HCC1806 cells (human, UniProt Q9UKV8 1-859)
T1 construct: Argonaute-2 (Ago2), human; source: lentiviral (pLV-EF1a-HA-Ago2-Blast), Ago2-knockout A549 and HCC1806 cells, in lysate; not shown: HA, N-terminal, kept
Test: co-IP; Ago2-knockout A549 and HCC1806 cells expressing HA-Ago2Wt, HA-Ago2K212A or HA-Ago2K212R; IP with anti-HA, blot for endogenous CAV1; ratio pCAV1/pHA; vehicle or TM (10 µM)
Conditions: partners not purified

T1 sequence (Q9UKV8 whole entry): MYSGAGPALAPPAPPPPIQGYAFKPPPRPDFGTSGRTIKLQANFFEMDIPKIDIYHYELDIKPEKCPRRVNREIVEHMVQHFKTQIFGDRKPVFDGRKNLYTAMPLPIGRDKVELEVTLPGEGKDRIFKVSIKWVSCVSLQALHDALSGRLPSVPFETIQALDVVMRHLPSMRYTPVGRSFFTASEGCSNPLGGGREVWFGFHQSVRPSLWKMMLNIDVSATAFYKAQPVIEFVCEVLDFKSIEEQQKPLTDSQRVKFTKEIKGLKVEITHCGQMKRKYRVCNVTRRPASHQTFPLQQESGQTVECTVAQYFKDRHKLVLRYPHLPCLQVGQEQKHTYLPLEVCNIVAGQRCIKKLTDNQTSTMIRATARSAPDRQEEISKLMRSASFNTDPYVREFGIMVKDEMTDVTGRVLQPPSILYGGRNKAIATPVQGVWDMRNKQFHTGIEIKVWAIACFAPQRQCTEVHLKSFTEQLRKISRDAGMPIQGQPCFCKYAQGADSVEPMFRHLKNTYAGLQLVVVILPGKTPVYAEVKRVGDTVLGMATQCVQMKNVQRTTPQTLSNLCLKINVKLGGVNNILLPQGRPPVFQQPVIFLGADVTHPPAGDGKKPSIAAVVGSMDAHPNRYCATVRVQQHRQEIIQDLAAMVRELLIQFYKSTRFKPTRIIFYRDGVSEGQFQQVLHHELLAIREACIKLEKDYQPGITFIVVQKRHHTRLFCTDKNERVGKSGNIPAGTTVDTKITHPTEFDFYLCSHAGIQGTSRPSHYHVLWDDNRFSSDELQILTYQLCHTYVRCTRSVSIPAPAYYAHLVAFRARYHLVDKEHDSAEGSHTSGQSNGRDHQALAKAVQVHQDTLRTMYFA

B1: Caveolin-1 (CAV1), endogenous (natural protein, UniProt Q03135 1-178, looked up)
chain: MSGGKYVDSEGHLYTVPIREQGNIYKPNNKAMADELSEKQVYDAHTKEIDLVNRDPKHLNDDVVKIDFEDVIAEPEGTHSFDGIWKASFTTFTVTKYWFYRLLSALFGIPMALIWGIYFAILSFLHIWAVVPCIKSFLIEIQCISRVYSIYVHTVCDPLFEAVGKIFSNVRINLQKEI
notes: Caveolin-1 (CAV1), human; source: endogenous
percent of pCAV1/pHA left in cells treated with TM (10 µM) against vehicle: ~49%
